Results on 17 sequences are retold here after the DeepSol protein solubility set.

The series can be described thus: soluble on expression in E. coli; label from the status in PepcDB or PDB records.
As for “MTAESPTIRLERYSERHVEGLTALYNDPAVARQVLQMPYQSVEQRRKRLHDSADDDRLLILVALHQGDVIGSASLEQHPRIRRSHSGSIGMGVAVAWQGKGVGSRLLGELLDIADNWMNLRRVELTVYTDNAPALALYRKFGFETEGEMRDYAVRDGRFVDVYSMARLRRVEGRVGE”, the “soluble on expression in E. coli” value was “soluble”. In the case of “MTAGEVLSQSEIDALLAALSAGEMSAEELKKEEEGRRVKTYDFRRALRFSKDQIRSLTRIHENFARLLTTFFSAQLRTYVQISVASADQIPYEEFVRSIPKMTIINVFEVPPLGGHVLLEVNPNIAYAMLDRVMGGRGVGMDKVEHLTEIETRIMSNLFDKAFVHWRDAWESVAEVDPLFVDFEVNPQFLRMIAPNDTVVVISLNTQIGEARGMMNVCIPHVVLEPIMPRLSVHYWMQAQKKERSPEEAKRIEQRIRAAKLPIIAELGTAVITVNEFLQLEAGDVIQLEQSIHEPLVVKIGHIPKFIGQPGKRNKKLAVQILAMIEGDEDDHDE” it was “not soluble”; in that of “MTAKTLIVLIGPTGVGKTELSLRIAEYFKTSIISSDSRQLYAELKIGTAAPTPEQLKRVPHYFVGTLQLTDYYSAAQYETEVMSVLEQLFQQHHVVLLTGGSMMYVDAICKGIDDIPTVDAETRELLLHKYDTEGLDNLCAELKLLDPEYYKIVDLKNPKRVIHALEICYMTGKTYTSFRTQQKKERPFHILKIGLTRDRAELYDRINRRVDQMMDEGLLEEARSVYAHRELNSLNTVGYKEIFKYLDGEWDLDFAIEKIKQNSRIYSRKQMTWFKRDEEIRWFHPEQEKEILSYLQASIKLEHHHHHH”, “soluble”; in that of “MTALKVGSESWWQSKHGPEWQRLNDEMFEVTFWWRDPQGSEEYSTIKRVWVYITGVTDHHQNSQPQSMQRIAGTDVWQWTTQLNANWRGSYCFIPTERDDIFSAPSPDRLELREGWRKLLPQAIADPLNPQSWKGGLGHAVSALEMPQAPLQPGWDCPQAPEIPAKEIIWKSERLKNSRRVWIFTTGDVTAEERPLAVLLDGEFWAQSMPVWPVLTSLTHRQQLPPAVYVLIDAIDTTHRAHELPCNADFWLAVQQELLPLVKVIAPFSDRADRTVVAGQSFGGLSALYAGLHWPERFGCVLSQSGSYWWPHRGGQQEGVLLEKLKAGEVSAEGLRIVLEAGIREPMIMRANQALYAQLHPIKESIFWRQVDGGHDALCWRGGLMQGLIDLWQPLFHDRS”, “soluble”.

In the case of “MTALSQLYPQPLWQWFEQICAIPHPSKHEQSLSQHIQAWAKQKQLDVVEDAVGNVIIRKAATPGMEDRKVVVIQAHIDMVPQKNADKVHDFIKDPIEAYVDGDWVKAKGTTLGADNGIGMASALAILGSDDIKHGPLEVLLTIDEEAGMTGAFGLQAGMLNAEILINTDSEQEGEIYMGCAGGVDAQITLPMVWQASEQSYASFSLHLSGLKGGHSGVNIHLGRGNANKILARFLFENADELALELTQFTGGSLRNAIPREANISFMLPAENIDALKEKVHAFEALMRAELAIADPDLRLVLSNIATPKRVMSENSQNTLIDLLHVCPNGVMRMSDEVTGVTETSLNVGVISTNDEEVGILCLIRSLIDSGRSQVEGMLNALTNLAGADVEFSGAYPGWKPDNTSPVMAIVRETYESIYHKEPVIMVIHAGLECGLFKKPYPEMDMVSIGPTIRYPHGPDEMVNITTVGQYWDLLVAVLERIPVKALEHHHHHH”, the “soluble on expression in E. coli” value is “not soluble”. In the case of “MTAPLPLDWTFPYVSQRMPALGENMVCTEQPLANQAAMRMLAAGGNAVDAAIAAAITMTVVGPCMNGIGGDLFAIIWDGRQLHGLNASGRAPQAWTREYFSRHDAMPARGWDAVTVPGAVSGWVALSRKFGKLDFARLFEPALHYARHGFLVTPITARQWADQAEPIMQGPGFRDAFAPNGRTPQPGERFICPGQADTLQDIADTHGESFYRGALAARIAAFARETGGALTKADLAAHQADWVDPIGAQYGELTLHEIGPSGQGIGALMALGMLDGLSGKLGQPDSTDFYHYQIEAMKLAFADINRYVADPASMREVSAEMLLDRAYLATRAGAIDPAEARYPGPGKPHNGGTTYLTAADADGMMVSLIQSNFKGFGSGVVVPGTGIALHNRGWGFNLIEGHPNEVGPGKRPFHTIIPGFLMRDGEPLMSFGVMGGSLQAQGHVQVTVRTAAGQNPQAIVDAPRWRILEDNRTVMVEWNFPDAAVAGLRERGHAVTVAPRFSDEFGGSQAIMRIEGGYLGASDHRKDGQASALLEHHHHHH” it was “not soluble”. In the case of “MTAQTTHTVDAVVIGAGFGGIYAVHKLHHELGLTTVGFDKADGPGGTWYWNRYPGALSDTESHLYRFSFDRDLLQESTWKTTYITQPEILEYLEDVVDRFDLRRHFKFGTEVTSALYLDDENLWEVTTDHGEVYRAKYVVNAVGLLSAINFPNLPGLDTFEGETIHTAAWPEGKSLAGRRVGVIGTGSTGQQVITSLAPEVEHLTVFVRTPQYSVPVGNRPVNPEQIAEIKADYDRIWERAKNSAVAFGFEESTLPAMSVSEEERNRIFQEAWDHGGGFRFMFGTFGDIATDEAANEAAASFIRAKVAEIIEDPETARKLMPKGLFAKRPLCDSGYYEVYNRPNVEAVAIKENPIREVTAKGVVTEDGVLHELDVLVFATGFDAVDGNYRRIEIRGRDGLHINDHWDGQPTSYLGVSTANFPNWFMVLGPNGPFTNLPPSIETQVEWISDTIGYAERNGVRAIEPTPEAEAEWTETCTEIANATLFTKGDSWIFGANIPGKKPSVLFYLGGLRNYRAVMAEVAADGYRGFEVKSAEMVTV” it was “soluble”; in that of “MTATETVRVRFCPSPTGTPHVGLVRTALFNWAYARHTGGTFVFRIEDTDAQRDSEESYLALLDALRWLGLDWDEGPEVGGPYGPYRQSQRAEIYRDVLARLLAAGEAYHAFSTPEEVEARHVAAGRNPKLGYDNFDRHLTDAQRAAYLAEGRQPVVRLRMPDDDLAWNDLVRGPVTFAAGSVPDFALTRASGDPLYTLVNPCDDALMKITHVLRGEDLLPSTPRQLALHQALIRIGVAERIPKFAHLPTVLGEGTKKLSKRDPQSNLFAHRDRGFIPEGLLNYLALLGWSIADDHDLFGLDEMVAAFDVADVNSSPARFDQKKADALNAEHIRMLDVGDFTVRLRDHLDTHGHHIALDEAAFAAAAELVQTRIVVLGDAWELLKFFNDDQYVIDPKAAAKELGPDGAAVLDAALAALTSVTDWTAPLIEAALKDALIEGLALKPRKAFSPIRVAATGTTVSPPLFESLELLGRDRSMQRLRAARQLVGHALEHHHHHH”, “soluble”; in that of “MTATNDKGLQQIATIIEQHQTLPGAMLPILHAIQNDLSFIPSNALPLIAKALNVSKAEVHGVISFYHHFRTEEPGAHVIEICRGESCQAMGSRALEENIKQNLSIDYHQTSKDRQYTLEPVYCLGNCACSPAMRIGDDIHGELDLQKFEQIIASLNTYSLELK”, “not soluble”. In the case of “MTCARCGYVREDLTLFDRVFVCPKCGWIVDRDYNASLNILRRSGSERPSVWSSAFYRWQGGAMKQEALSVRGGLEHHHHHH” it was “not soluble”; in that of “MTDDVDTHIHEKFDLQKRLGKGAYGIVWKAYDKRSRETVALKKIFDAFRNPTDSQRTFREVMFLQEFGKHPNVIKLYNIFRADNDRDIYLAFEFMEADLHNVIKKGSILKDVHKQYIMCQLFRAIRFLHSGNVLHRDLKPSNVLLDADCRVKLADFGLARSLSSLEDYPEGQKMPDLTEYVATRWYRSPEILLAAKRYTKGVDMWSLGCILAEMLIGRALFPGSSTINQIERIMNTIAKPSRADIASIGSHYAASVLEKMPQRPRKPLDLIITQSQTAAIDMVQRLLIFAPQKRLTVEQCLVHPYVVQFHNPSEEPVLNYEVYPPLPDHIQLSIDDYRDRLYEMIDEKKASFKRIQHEKIRPYGEDKSRAPIAQAECSDTDYDTARSLQRTTSMDKNNSSSHDSSSGTLRERAASAESRTSKDSNGEMRNGNGNTPSSIKQRRRSVERARLFANIKPSKILHPHKLISNY”, “not soluble”; in that of “MTDFLEIRPLTKEAFTPFGDVIETTPSSMRHINGGQTERHHALSAPEAAGEGARIILNIFRGQPRVFPHKIDMMERHPLGSQSFSPLSGRPFLVVVAQDDGGRPARPQVFLARGDQGVNYRRNVWHYPLMPLQAVSDFLVADREGPGNNLEEYFFDEPFMIAEPSL”, “not soluble”. Turning to “MTDIDAIIIGAGVIGLATARELSMHGLSVIILESETEFGSATSSRNSEVIHAGLYYPAGSLKARLCVEGRQRLYDFCESHGVAHRHCGKLIVATSDDETPLLVALGAKGKANGCDDLELIDQRHALSLEPALACSSALLSPSTGIIDSHGYMLALLGEAQDHGAALALNAPFERAEAIGDGFRVHVGGKEPVSLTCRLLVNSAGLVAPMVAAMIEGLPSVAIPQARFAKGSYFSLTGKSPFSRLIYPAPHTHGLGVHLTLDLAGQARFGPDVEWVDTIDYAVDPRRMEGFGDAIRRYWPGLPEHTLAPAYSGIRPKISGPDEPAMDFRIDGPETHGFPGLVNLFGIESPGLTASLAIAGEIAARLEALEHHHHHH”, the “soluble on expression in E. coli” value is given as “not soluble”. In the case of “MTDKENFYSGFFLGRLPGSFDSRFLIKVACFQPGKEERNVFELTTDTKREEDYGEMVHFWVDKGPLQNKSFVRFEENYETFFIHENKMFDRIVHTDKDFYVGVNDLPDSDIYIHPDLGKMIDTRSIVTPGKKYNFITFEVKQNENNSFDIEIVGGEVQGKEKNSEEPSAKEKIIQKMEQVHEVMKVEYEYNKNEETANWDVIGHLKLIKFYDKDLTSGLRPVLRLMDNRHVALFKKQRETMPIKMIKVIEVDGIWKDDVNFVPQEGTLLPTDHDEKTVVLLGNDYRHKFERLFKREDVFRLESNNTLTHLKFWQYGLEKI” it was “not soluble”; in that of “MTDNTLTPQMLTGLSTDHLVVLSGAHRLQPQAAEAFQAMQQAAKVAGFDLQPASTFRDFGRQLAIWNGKFRGERPVLDQDSQPIDIFSLDTAARCEAILRWSALPGTSRHHWGSDLDIYDPSRLPTGEKLQLEPWEYDAGGYFYPLTQWLSAHMAEFGFYRPFATDNGGVAVEPWHLSYRPLAEQAEHLLTPKILLAAWQSQDVAGSEWLASHLPMIFSRFIYLK”, “not soluble”; in that of “MTDTQYIGRFAPSPSGELHFGSLIAALGSYLQARARQGRWLVRIEDIDPPREVPGAAETILRQLEHYGLHWDGDVLWQSQRHDAYREALAWLHEQGLSYYCTCTRARIQSIGGIYDGHCRVLHHGPDNAAVRIRQQHPVTQFTDQLRGIIHADEKLAREDFIIHRRDGLFAYNLAVVVDDHFQGVTEIVRGADLIEPTVRQISLYQLFGWKVPDYIHLPLALNPQGAKLSKQNHAPALPKGDPRPVLIAALQFLGQQAEAHWQDFSVEQILQSAVKNWRLTAVPESAIVNSTFSNASC”, “soluble”.

Regarding “MTDVRHCPAVLIAAPASGQGKTTVTAALARLHRNRGRKVRVFKCGPDFLDPMILERASGAAVYQLDMWMVGEQESRRLLWEAAGEADLILIEGVMGLFDGTPSSADLARHFGVPVLGVIDGTAMAQTFGALALGLARYQPDLPFAGVLANRVGTLRHAQLLEGSLTEGLRWYGALSRETDIELPSRHLGLVQASELNDLDLRLDAAAEALASSCQVELPPAVSFAAPTPVACAPLLKGVRIAVARDEAFAFTYGASLDLLRAMGAQLSFFSPIHDTQLPDADSLYLPGGYPELHHQALARNSSMLQAIRAHHAAGKPLLAECGGMLYLLDSLTDVEGQRAELLGLLPGDAVMQKRLAALALQAVDLPEGSLRGHTYHHSLTSTELLPIARGLSPNGGRGAEAVYRQGRMTASYVHFYFPSNPAAVAALFAPGAPVEPVLAEGVAGELEHHHHHH”, the “soluble on expression in E. coli” value is reported as “not soluble”.
